Data on 4 molecules can be found in article PMC3702667 (Nature structural & molecular biology, 2013).

First the molecules themselves.
B1: GST–tagged Rpb1_(1168–1302) (domain or fragment)
chain: not shown
B2: RECQL5 IRI domain (residues 490–620) (domain or fragment)
chain: GSGDEGRDEAHKREWNLFYQKQMQLRKGKDPKIEEFVPPDENCPLKEASSRRIPRLTVKAREHCLRLLEEALSSNRQSTRTADEADLRAKAVELEHETFRNAKVANLYKASVLKKVADIHRASKDGQPYDM
B3: GST–RECQL5_(490–620) (domain or fragment)
chain: B2 chain
B4: untagged recombinant Rpb1_(1168–1302) (domain or fragment)
chain: not shown

Common to all, as to experiment: pull-down
One assay concerns the target RECQL5_(1–620) (human, UniProt O94762 1-620).
The target in assay [1] is B1.
The target of assay [2] is B4.
In the next assay the target is GST–fused RECQL5_(1–620) (human, UniProt O94762 1-620).

With B1, in the assay with RECQL5_(1–620), the binding result is “binds”.
Turning to B2, the binding result in assay [1] is “binds”.
As to B3, the binding result in assay [2] was “binds”.
Regarding B4, in the assay with GST–fused RECQL5_(1–620), the binding result is on record as “binds”.
